Reference: article PMC4027161 (Nucleic Acids Research, 2014)
Residue numbers refer to the chain shown, from its start.

T1: monomeric form of PCNA2 (PCNA2m, R75A-F111E-R143A) (Thermococcus kodakarensis, UniProt Q5JFD3 1-253, R75A | F111E | R143A)
T1 sequence: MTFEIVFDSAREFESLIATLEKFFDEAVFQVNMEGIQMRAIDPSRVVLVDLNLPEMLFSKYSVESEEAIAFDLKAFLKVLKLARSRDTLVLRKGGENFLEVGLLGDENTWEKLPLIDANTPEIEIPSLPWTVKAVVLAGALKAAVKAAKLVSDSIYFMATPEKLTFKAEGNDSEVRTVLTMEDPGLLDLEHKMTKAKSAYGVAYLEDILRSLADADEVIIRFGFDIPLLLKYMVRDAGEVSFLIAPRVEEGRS

B1: Thermococcus kodakarensis PCNA1 (TK0535) (natural protein, UniProt Q5JF32 1-249, looked up)
chain: MPFEVVFDGAKEFADLIATASNLIDEAAFKFTEEGISMRAMDPSRVVLIDLNLPESIFSKYEVEEPETIGINMDQFKKILKRGKAKDTLILRKGDENFLEITFEGTAKRTFRLPLIDVEELELELPELPFTAKVVLLGEVLKEGIKDASLVSDAIKFIAKENEFTMKAEGETNEVEIRLTLEDEGLLDLEVEEETKSAYGIRYLSDMVKGIGKADEVILRFGNEMPLQMEYMIRDEGRLTFLLAPRVEE
B2: Thermococcus kodakarensis PCNA2 (TK0582) (natural protein)
chain: T1 sequence with A75R, E111F, A143R
B3: Thermococcales inhibitor of PCNA (TIP), encoded by TK0808 (natural protein, Thermococcus kodakarensis, UniProt Q5JH72 1-64, looked up)
chain: MDRKLDEFIGDATPKKVSKEKPVRRKKRLKPTSLDSFLPEEHINYFRDLRIGSKKIRNAKIEEL
B4: Methanothermobacter thermautotrophicus PCNA (mtPCNA) (natural protein, UniProt O27367 1-244, looked up)
chain: MFKAELNDPNILRTSFDAISSIVDEVQIQLSAEGLRLDALDRSHITYVHLELKAELFDEYVCDEPERINVDTEELMKVLKRAKANDRVILSTDEGNLIIQFEGEAVRTFKIRLIDIEYETPSPPEIEYENEFEVPFQLLKDSIADIDIFSDKITFRVDEDRFIASAEGEFGDAQIEYLHGERIDKPARSIYSLDKIKEMLKADKFSETAIINLGDDMPLKLTLKMASKEGELSFLLAPRIEAEE

Assays:
[1] = target: the molecule itself; assay: SEC; Superdex-200 (HR10/30); 100 ug of each protein in 200 ul of 25 mM Tris-HCl pH 8.0, 200 mM NaCl, 0.5 mM EDTA, 10% glycerol; fractions on SDS-PAGE, Coomassie
[2] = target: B2; assay: HDX-MS; 15 uM protein; PCNA monomer:TIP monomer 1:1, equilibrated at 4 C for 16 h; 20 mM sodium phosphate, 500 mM NaCl, pH 7.6; exchange at 3 C, 30 s to 60 min; pepsin digestion; settings: both partners purified
[3] = target: T1, monomeric form of PCNA2 (PCNA2m, …); assay: SEC; Superdex-200 (HR10/30); 100 ug of each protein in 200 ul of 25 mM Tris-HCl pH 8.0, 200 mM NaCl, 0.5 mM EDTA, 10% glycerol; fractions on SDS-PAGE, Coomassie; settings: both partners purified
[4] = target: B1; assay: crystal structure; low resolution X-ray structure of the complex, unpublished observation; settings: both partners purified

Binder	stoichiometry N [1]	binding result [2]	binding result [3]	stoichiometry N [4]
B1	3			
B2	3			
B3		binds	binds	1 TIP per PCNA monomer
B4	3			
